Source: article PMC10247153, “Chromatin Sensing by the Auxiliary Domains of KDM5C Regulates Its Demethylase Activity and Is Disrupted by X-linked Intellectual Disability Mutations”

Target: T1, KDM5C ARID (Homo sapiens, UniProt P41229 73-188)
T1 sequence: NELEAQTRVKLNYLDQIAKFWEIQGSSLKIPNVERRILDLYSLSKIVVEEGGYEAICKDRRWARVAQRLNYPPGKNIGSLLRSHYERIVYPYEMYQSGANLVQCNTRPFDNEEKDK
Assay: EMSA; apparent Kd; EMSA: 50 mM HEPES pH 7.5, 50 mM KCl, 1 mM BME, 0.01% Tween-20, 0.01% BSA, 5% sucrose, 1 h on ice; 100 nM nucleosome or 147 bp DNA, 500 nM 20 bp DNA; gel at 4 C.
Details: protein: recombinant; tags: 6xHis-SUMO cleaved

B1: 5' flanking (linker) DNA 20 bp (dsDNA)
DNA 1: GGACCCTATACGCGGCCGCC
DNA 2: GGCGGCCGCGTATAGGGTCC
Kd: 9.9 ± 0.4 µM
